{"source": "paper PMC7644594", "target": "EPHA2 tagged with a fluorescent protein for FRET (EPHA2-mClover3, EPHA2-mRuby3) (human) (UniProt P29317)", "test": "FRET or BRET", "data": [{"substance": "EPHA2 tagged with a fluorescent protein for FRET (EPHA2-mClover3, EPHA2-mRuby3) (from UniProt P29317 24-976) (receptor)", "values": [{"measurement": "N-FRET", "result": 0.347}]}]}
